Measured values as given in article PMC9897468.

What was measured:
microtubules (MTs) [1] = assay: TIRF-M dwell time of diffusing molecules on microtubules
microtubules (MTs) [2] = assay: TIRF-M dwell time on microtubules with EB1
[3] = target: Alexa-647-labeled KIF5AA (mouse) (UniProt P33175); assay: dual color TIRF-M in vitro motility reconstitution
Alexa-647-labeled KIF5AA (mouse), sequence (P33175 whole entry): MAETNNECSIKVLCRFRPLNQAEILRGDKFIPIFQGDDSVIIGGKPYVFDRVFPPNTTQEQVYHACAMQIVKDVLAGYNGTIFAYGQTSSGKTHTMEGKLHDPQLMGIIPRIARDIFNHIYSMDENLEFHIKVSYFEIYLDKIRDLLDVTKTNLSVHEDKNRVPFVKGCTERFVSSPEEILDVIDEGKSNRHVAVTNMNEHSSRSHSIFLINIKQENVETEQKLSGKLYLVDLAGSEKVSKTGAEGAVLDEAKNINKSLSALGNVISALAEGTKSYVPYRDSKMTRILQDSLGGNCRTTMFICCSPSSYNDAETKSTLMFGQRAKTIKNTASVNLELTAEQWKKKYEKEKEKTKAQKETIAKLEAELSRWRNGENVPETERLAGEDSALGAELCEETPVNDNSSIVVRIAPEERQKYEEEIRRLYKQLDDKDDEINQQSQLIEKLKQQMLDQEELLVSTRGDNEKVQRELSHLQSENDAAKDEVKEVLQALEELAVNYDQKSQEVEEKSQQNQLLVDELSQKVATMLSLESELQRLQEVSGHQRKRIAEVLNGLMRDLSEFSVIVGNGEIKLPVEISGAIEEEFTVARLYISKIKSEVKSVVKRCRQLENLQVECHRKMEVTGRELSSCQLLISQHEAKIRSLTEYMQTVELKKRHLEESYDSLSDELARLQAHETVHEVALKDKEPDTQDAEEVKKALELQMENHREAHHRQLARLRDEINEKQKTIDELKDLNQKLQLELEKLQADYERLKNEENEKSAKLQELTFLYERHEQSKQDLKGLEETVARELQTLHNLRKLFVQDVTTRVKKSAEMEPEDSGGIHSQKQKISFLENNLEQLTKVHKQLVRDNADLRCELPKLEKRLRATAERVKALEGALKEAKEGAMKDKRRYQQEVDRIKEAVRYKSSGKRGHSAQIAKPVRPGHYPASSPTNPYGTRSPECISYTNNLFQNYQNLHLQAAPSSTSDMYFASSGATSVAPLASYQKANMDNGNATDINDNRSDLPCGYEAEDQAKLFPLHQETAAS

Which results are given for “adenomatous polyposis coli (APC), full-length, Q61315 1-2845”?
dwell time, long diffusion events (microtubules (MTs) [1]): 26.3 s; dwell time with EB1 (fast and slow components) (microtubules (MTs) [2]): > 60 s; percent of processive KIF5AA-647 that transports APC–TMR [3]: 25%
